B1: Aprataxin and PNK-like factor (Homo sapiens), Q8IW19 (parent)
chain: MSGGFELQPRDGGPRVALAPGETVIGRGPLLGITDKRVSRRHAILEVAGGQLRIKPIHTNPCFYQSSEKSQLLPLKPNLWCYLNPGDSFSLLVDKYIFRILSIPSEVEMQCTLRNSQVLDEDNILNETPKSPVINLPHETTGASQLEGSTEIAKTQMTPTNSVSFLGENRDCNKQQPILAERKRILPTWMLAEHLSDQNLSVPAISGGNVIQGSGKEEICKDKSQLNTTQQGRRQLISSGSSENTSAEQDTGEECKNTDQEESTISSKEMPQSFSAITLSNTEMNNIKTNAQRNKLPIEELGKVSKHKIATKRTPHKEDEAMSCSENCSSAQGDSLQDESQGSHSESSSNPSNPETLHAKATDSVLQGSEGNKVKRTSCMYGANCYRKNPVHFQHFSHPGDSDYGGVQIVGQDETDDRPECPYGPSCYRKNPQHKIEYRHNTLPVRNVLDEDNDNVGQPNEYDLNDSFLDDEEEDYEPTDEDSDWEPGKEDEEKEDVEELLKEAKRFMKRK

The variants in the test derive from B1. The note with it: with xrcc5_human XRCC5, P13010.
Sequence of xrcc5_human XRCC5, P13010 (P13010 whole entry): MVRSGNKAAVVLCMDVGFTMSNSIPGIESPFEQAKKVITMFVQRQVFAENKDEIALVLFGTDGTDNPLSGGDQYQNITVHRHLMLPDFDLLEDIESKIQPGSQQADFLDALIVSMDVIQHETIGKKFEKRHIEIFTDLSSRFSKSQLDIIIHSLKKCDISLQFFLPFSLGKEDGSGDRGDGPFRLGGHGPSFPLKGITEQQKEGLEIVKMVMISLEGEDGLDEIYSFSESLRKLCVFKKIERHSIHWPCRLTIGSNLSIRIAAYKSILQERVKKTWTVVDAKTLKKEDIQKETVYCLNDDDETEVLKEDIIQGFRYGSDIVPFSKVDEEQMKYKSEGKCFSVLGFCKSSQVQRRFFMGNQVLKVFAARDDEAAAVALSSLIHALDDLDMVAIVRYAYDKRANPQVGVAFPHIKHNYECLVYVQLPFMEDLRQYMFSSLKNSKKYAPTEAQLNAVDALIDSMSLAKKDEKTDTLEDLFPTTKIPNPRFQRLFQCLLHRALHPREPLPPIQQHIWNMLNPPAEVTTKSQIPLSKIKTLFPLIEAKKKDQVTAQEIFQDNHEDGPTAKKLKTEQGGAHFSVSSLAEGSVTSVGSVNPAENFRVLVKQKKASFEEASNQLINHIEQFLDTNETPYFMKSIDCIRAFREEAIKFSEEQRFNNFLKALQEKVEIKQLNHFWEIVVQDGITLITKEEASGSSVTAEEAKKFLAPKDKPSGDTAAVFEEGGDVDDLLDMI
With W189G, the “effect of a mutation on the interaction” value is reported as “disrupting interaction”.

The record behind these values is IntAct's records for PubMed 23178593.
